# Measured values reported in US20200407457A1 (YANTAI OBIOADC BIOMEDICAL TECHNOLOGY, published 2020).
# Biological target: T1, TRAILR2 receptor on the surface of human tumor cells (human, UniProt O14763 56-440)
# Assay: cell-based or functional assay
Binder,"IC50, cytotoxic effect on A2780 cells (CellTiter-Glo, 72 h) [µg/mL]","IC50, cytotoxic effect on Jurkat E6-1 cells (CellTiter-Glo, 72 h) [µg/mL]","IC50, cytotoxic effect on Mia PaCa-2 cells (CellTiter-Glo, 72 h) [µg/mL]","IC50, cytotoxic effect on NCI-H460 cells (CellTiter-Glo, 72 h) [µg/mL]","IC50, cytotoxic effect on NCI-H1975 cells (CellTiter-Glo, 72 h) [µg/mL]","IC50, cytotoxic effect on SMMC-7721 cells (CellTiter-Glo, 72 h) [µg/mL]","eff. (efficiency %), cytotoxic effect on Jurkat E6-1 cells [%]","eff. (efficiency %), cytotoxic effect on Mia PaCa-2 cells [%]","eff. (efficiency %), cytotoxic effect on NCI-H460 cells [%]","eff. (efficiency %), cytotoxic effect on NCI-H1975 cells [%]"
"Zapadcine-1a (antibody, V domains shown, MMAD coupled through linker Py-Vc-PAB by thiol (disulfide) bridge coupling, cleavable; positions not given) VH: QVQLVQSGSELKKPGASVKVSCKASGYTFTDFSMNWVRQAPGQGLEWMGWINTETGEPTYADDFKGRFVFSLDTSVSTAYLQISSLKAEDTAVYYCARIDYWGQGTTVTVSS VL: DIVMTQSPLSLPVTPGEPASISCRSSQSLVHSNGNTYLHWYLQKPGQSPQLLIYKVSNRFSGVPDRFSGSGSGTDFTLKISRVEAEDVGVYYCFQSTHVPHTFGQGTKLEIKR",0.151,0.0134,0.135,0.0865,0.109,0.012,97.3,88.4,96.2,84.6
"Zaptuzumab (antibody, V domains shown) VH: QVQLVQSGSELKKPGASVKVSCKASGYTFTDFSMNWVRQAPGQGLEWMGWINTETGEPTYADDFKGRFVFSLDTSVSTAYLQISSLKAEDTAVYYCARIDYWGQGTTVTVSS VL: DIVMTQSPLSLPVTPGEPASISCRSSQSLVHSNGNTYLHWYLQKPGQSPQLLIYKVSNRFSGVPDRFSGSGSGTDFTLKISRVEAEDVGVYYCFQSTHVPHTFGQGTKLEIKR",–,0.201,3.01,–,0.542,6.12,90.7,27.5,–,62.4
"Zapadcine-1b (antibody, V domains shown, MMAD coupled through linker Mc-Vc-PAB by thiol conventional coupling, cleavable; positions not given) VH: QVQLVQSGSELKKPGASVKVSCKASGYTFTDFSMNWVRQAPGQGLEWMGWINTETGEPTYADDFKGRFVFSLDTSVSTAYLQISSLKAEDTAVYYCARIDYWGQGTTVTVSS VL: DIVMTQSPLSLPVTPGEPASISCRSSQSLVHSNGNTYLHWYLQKPGQSPQLLIYKVSNRFSGVPDRFSGSGSGTDFTLKISRVEAEDVGVYYCFQSTHVPHTFGQGTKLEIKR",1.1,0.00871,0.604,0.178,0.411,0.178,98.6,86.8,93.3,83.4
"Zapadcine-1d (antibody, V domains shown, MMAF coupled through linker Mc-Vc-PAB by thiol conventional coupling, cleavable; positions not given) VH: QVQLVQSGSELKKPGASVKVSCKASGYTFTDFSMNWVRQAPGQGLEWMGWINTETGEPTYADDFKGRFVFSLDTSVSTAYLQISSLKAEDTAVYYCARIDYWGQGTTVTVSS VL: DIVMTQSPLSLPVTPGEPASISCRSSQSLVHSNGNTYLHWYLQKPGQSPQLLIYKVSNRFSGVPDRFSGSGSGTDFTLKISRVEAEDVGVYYCFQSTHVPHTFGQGTKLEIKR",–,0.108,1.02,1.03,1.67,0.583,84.9,80,80.6,68.8
"Zapadcine-1c (antibody, V domains shown, MMAD coupled through linker Py-MAA by thiol bridge coupling, non-cleavable; positions not given) VH: QVQLVQSGSELKKPGASVKVSCKASGYTFTDFSMNWVRQAPGQGLEWMGWINTETGEPTYADDFKGRFVFSLDTSVSTAYLQISSLKAEDTAVYYCARIDYWGQGTTVTVSS VL: DIVMTQSPLSLPVTPGEPASISCRSSQSLVHSNGNTYLHWYLQKPGQSPQLLIYKVSNRFSGVPDRFSGSGSGTDFTLKISRVEAEDVGVYYCFQSTHVPHTFGQGTKLEIKR",–,0.0165,0.173,0.0651,0.312,0.0197,98.1,74,46.4,83

# Same assay, conditions: not given
row,Binder,"eff. (efficiency %), cytotoxic effect on SMMC-7721 cells [%]"
1,"Zapadcine-1a (antibody, V domains shown, MMAD coupled through linker Py-Vc-PAB by thiol (disulfide) bridge coupling, cleavable; positions not given) VH: QVQLVQSGSELKKPGASVKVSCKASGYTFTDFSMNWVRQAPGQGLEWMGWINTETGEPTYADDFKGRFVFSLDTSVSTAYLQISSLKAEDTAVYYCARIDYWGQGTTVTVSS VL: DIVMTQSPLSLPVTPGEPASISCRSSQSLVHSNGNTYLHWYLQKPGQSPQLLIYKVSNRFSGVPDRFSGSGSGTDFTLKISRVEAEDVGVYYCFQSTHVPHTFGQGTKLEIKR",99.4
2,"Zaptuzumab (antibody, V domains shown) VH: QVQLVQSGSELKKPGASVKVSCKASGYTFTDFSMNWVRQAPGQGLEWMGWINTETGEPTYADDFKGRFVFSLDTSVSTAYLQISSLKAEDTAVYYCARIDYWGQGTTVTVSS VL: DIVMTQSPLSLPVTPGEPASISCRSSQSLVHSNGNTYLHWYLQKPGQSPQLLIYKVSNRFSGVPDRFSGSGSGTDFTLKISRVEAEDVGVYYCFQSTHVPHTFGQGTKLEIKR",48
3,"Zapadcine-1b (antibody, V domains shown, MMAD coupled through linker Mc-Vc-PAB by thiol conventional coupling, cleavable; positions not given) VH: QVQLVQSGSELKKPGASVKVSCKASGYTFTDFSMNWVRQAPGQGLEWMGWINTETGEPTYADDFKGRFVFSLDTSVSTAYLQISSLKAEDTAVYYCARIDYWGQGTTVTVSS VL: DIVMTQSPLSLPVTPGEPASISCRSSQSLVHSNGNTYLHWYLQKPGQSPQLLIYKVSNRFSGVPDRFSGSGSGTDFTLKISRVEAEDVGVYYCFQSTHVPHTFGQGTKLEIKR",95.7
4,"Zapadcine-1d (antibody, V domains shown, MMAF coupled through linker Mc-Vc-PAB by thiol conventional coupling, cleavable; positions not given) VH: QVQLVQSGSELKKPGASVKVSCKASGYTFTDFSMNWVRQAPGQGLEWMGWINTETGEPTYADDFKGRFVFSLDTSVSTAYLQISSLKAEDTAVYYCARIDYWGQGTTVTVSS VL: DIVMTQSPLSLPVTPGEPASISCRSSQSLVHSNGNTYLHWYLQKPGQSPQLLIYKVSNRFSGVPDRFSGSGSGTDFTLKISRVEAEDVGVYYCFQSTHVPHTFGQGTKLEIKR",93.7
5,"Zapadcine-1c (antibody, V domains shown, MMAD coupled through linker Py-MAA by thiol bridge coupling, non-cleavable; positions not given) VH: QVQLVQSGSELKKPGASVKVSCKASGYTFTDFSMNWVRQAPGQGLEWMGWINTETGEPTYADDFKGRFVFSLDTSVSTAYLQISSLKAEDTAVYYCARIDYWGQGTTVTVSS VL: DIVMTQSPLSLPVTPGEPASISCRSSQSLVHSNGNTYLHWYLQKPGQSPQLLIYKVSNRFSGVPDRFSGSGSGTDFTLKISRVEAEDVGVYYCFQSTHVPHTFGQGTKLEIKR",96.5

# Biological target: T1, TRAILR2 receptor on the surface of …
# Assay: cell-based or functional assay
# Remark: another data set of the same source
Binder,"IC50, cytotoxic effect on Jurkat E6-1 cells (CellTiter-Glo, 72 h) [µg/mL]","IC50, cytotoxic effect on MSTO-211H cells (CellTiter-Glo, 72 h) [µg/mL]","IC50, cytotoxic effect on Mia PaCa-2 cells (CellTiter-Glo, 72 h) [µg/mL]","IC50, cytotoxic effect on Reh cells (CellTiter-Glo, 72 h) [µg/mL]","eff. (efficiency %), cytotoxic effect on Jurkat E6-1 cells [%]","eff. (efficiency %), cytotoxic effect on MSTO-211H cells [%]","eff. (efficiency %), cytotoxic effect on Mia PaCa-2 cells [%]","eff. (efficiency %), cytotoxic effect on Reh cells [%]"
"Zaptuzumab (antibody, V domains shown) VH: QVQLVQSGSELKKPGASVKVSCKASGYTFTDFSMNWVRQAPGQGLEWMGWINTETGEPTYADDFKGRFVFSLDTSVSTAYLQISSLKAEDTAVYYCARIDYWGQGTTVTVSS VL: DIVMTQSPLSLPVTPGEPASISCRSSQSLVHSNGNTYLHWYLQKPGQSPQLLIYKVSNRFSGVPDRFSGSGSGTDFTLKISRVEAEDVGVYYCFQSTHVPHTFGQGTKLEIKR",0.201,0.514,2.9,1.59,90.7,47.8,33.2,45
